{
  "source": "the supplement of paper PMC9112550",
  "about": "“Optimization of the antimicrobial peptide Bac7 by deep mutational scanning” (BMC Biology, 2022);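 note: peptides expressed intracellularly from a pBAD plasmid library in pooled LB shake-flask culture, induced with 0.3% L-arabinose, DNA abundance read by NGS, three biological replicates, DESeq2 with apeglm shrinkage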",
  "test_system": "Escherichia coli TOP10",
  "assay": "shrunken log2 fold change of peptide-encoding DNA abundance (4.5 h post-induction vs induction); higher = less antimicrobial activity (less host growth inhibition)",
  "conditions": "time post-induction: 4.5 h; library: site-saturation at positions 5, 18, 19, 20",
  "data": [
    {"sequence": "RRIRCRPPRLPRPRPRPFVGPRP", "values": [
      {"measurement": "shrunken log2 fold change", "value": -0.315}
    ]},
    {"sequence": "RRIRWRPPRLPRPRPRPRFDPRP", "values": [
      {"measurement": "shrunken log2 fold change", "value": 0.147}
    ]},
    {"sequence": "RRIRTRPPRLPRPRPRPAKNPRP", "values": [
      {"measurement": "shrunken log2 fold change", "value": -0.0492}
    ]},
    {"sequence": "RRIRARPPRLPRPRPRPCLEPRP", "values": [
      {"measurement": "shrunken log2 fold change", "value": 0.19}
    ]},
    {"sequence": "RRIRDRPPRLPRPRPRPMIRPRP", "values": [
      {"measurement": "shrunken log2 fold change", "value": -0.0188}
    ]},
    {"sequence": "RRIRGRPPRLPRPRPRPPWIPRP", "values": [
      {"measurement": "shrunken log2 fold change", "value": 0.256}
    ]},
    {"sequence": "RRIRPRPPRLPRPRPRPQHRPRP", "values": [
      {"measurement": "shrunken log2 fold change", "value": 0.162}
    ]},
    {"sequence": "RRIRPRPPRLPRPRPRPIWNPRP", "values": [
      {"measurement": "shrunken log2 fold change", "value": -0.282}
    ]},
    {"sequence": "RRIRQRPPRLPRPRPRPCGKPRP", "values": [
      {"measurement": "shrunken log2 fold change", "value": -0.116}
    ]},
    {"sequence": "RRIRRRPPRLPRPRPRPEIYPRP", "values": [
      {"measurement": "shrunken log2 fold change", "value": 0.0166}
    ]},
    {"sequence": "RRIRKRPPRLPRPRPRPYLWPRP", "values": [
      {"measurement": "shrunken log2 fold change", "value": 0.125}
    ]},
    {"sequence": "RRIRIRPPRLPRPRPRPHNSPRP", "values": [
      {"measurement": "shrunken log2 fold change", "value": -0.132}
    ]},
    {"sequence": "RRIRCRPPRLPRPRPRPLIEPRP", "values": [
      {"measurement": "shrunken log2 fold change", "value": -0.0593}
    ]},
    {"sequence": "RRIRERPPRLPRPRPRPQVIPRP", "values": [
      {"measurement": "shrunken log2 fold change", "value": -0.125}
    ]},
    {"sequence": "RRIRARPPRLPRPRPRPKWIPRP", "values": [
      {"measurement": "shrunken log2 fold change", "value": 0.0218}
    ]},
    {"sequence": "RRIRERPPRLPRPRPRPPEWPRP", "values": [
      {"measurement": "shrunken log2 fold change", "value": -0.0429}
    ]},
    {"sequence": "RRIRFRPPRLPRPRPRPAYLPRP", "values": [
      {"measurement": "shrunken log2 fold change", "value": -0.649}
    ]},
    {"sequence": "RRIRYRPPRLPRPRPRPHMMPRP", "values": [
      {"measurement": "shrunken log2 fold change", "value": -1.6}
    ]},
    {"sequence": "RRIRNRPPRLPRPRPRPVQVPRP", "values": [
      {"measurement": "shrunken log2 fold change", "value": -0.317}
    ]},
    {"sequence": "RRIRFRPPRLPRPRPRPFRAPRP", "values": [
      {"measurement": "shrunken log2 fold change", "value": 0.0466}
    ]},
    {"sequence": "RRIRRRPPRLPRPRPRPVTLPRP", "values": [
      {"measurement": "shrunken log2 fold change", "value": 0.0854}
    ]},
    {"sequence": "RRIRRRPPRLPRPRPRPNQMPRP", "values": [
      {"measurement": "shrunken log2 fold change", "value": 0.388}
    ]},
    {"sequence": "RRIRMRPPRLPRPRPRPLYQPRP", "values": [
      {"measurement": "shrunken log2 fold change", "value": -0.38}
    ]},
    {"sequence": "RRIRWRPPRLPRPRPRPGATPRP", "values": [
      {"measurement": "shrunken log2 fold change", "value": 1.02}
    ]},
    {"sequence": "RRIRQRPPRLPRPRPRPCANPRP", "values": [
      {"measurement": "shrunken log2 fold change", "value": 0.00875}
    ]},
    {"sequence": "RRIRKRPPRLPRPRPRPKGEPRP", "values": [
      {"measurement": "shrunken log2 fold change", "value": 0.201}
    ]},
    {"sequence": "RRIRGRPPRLPRPRPRPFEVPRP", "values": [
      {"measurement": "shrunken log2 fold change", "value": 0.121}
    ]},
    {"sequence": "RRIRARPPRLPRPRPRPEFRPRP", "values": [
      {"measurement": "shrunken log2 fold change", "value": 0.327}
    ]},
    {"sequence": "RRIRCRPPRLPRPRPRPARRPRP", "values": [
      {"measurement": "shrunken log2 fold change", "value": 0.555}
    ]},
    {"sequence": "RRIRCRPPRLPRPRPRPYLSPRP", "values": [
      {"measurement": "shrunken log2 fold change", "value": -0.577}
    ]},
    {"sequence": "RRIRFRPPRLPRPRPRPVLPPRP", "values": [
      {"measurement": "shrunken log2 fold change", "value": -0.371}
    ]},
    {"sequence": "RRIRARPPRLPRPRPRPLAIPRP", "values": [
      {"measurement": "shrunken log2 fold change", "value": 0.397}
    ]},
    {"sequence": "RRIRGRPPRLPRPRPRPECTPRP", "values": [
      {"measurement": "shrunken log2 fold change", "value": 2.08}
    ]},
    {"sequence": "RRIRERPPRLPRPRPRPFPIPRP", "values": [
      {"measurement": "shrunken log2 fold change", "value": 0.118}
    ]},
    {"sequence": "RRIRVRPPRLPRPRPRPDCDPRP", "values": [
      {"measurement": "shrunken log2 fold change", "value": -0.102}
    ]},
    {"sequence": "RRIRNRPPRLPRPRPRPNVNPRP", "values": [
      {"measurement": "shrunken log2 fold change", "value": -0.795}
    ]},
    {"sequence": "RRIRMRPPRLPRPRPRPKTPPRP", "values": [
      {"measurement": "shrunken log2 fold change", "value": 3.35}
    ]},
    {"sequence": "RRIRLRPPRLPRPRPRPGCLPRP", "values": [
      {"measurement": "shrunken log2 fold change", "value": -0.129}
    ]},
    {"sequence": "RRIRPRPPRLPRPRPRPEVSPRP", "values": [
      {"measurement": "shrunken log2 fold change", "value": 0.0949}
    ]},
    {"sequence": "RRIRGRPPRLPRPRPRPEHTPRP", "values": [
      {"measurement": "shrunken log2 fold change", "value": 0.0464}
    ]},
    {"sequence": "RRIRGRPPRLPRPRPRPYRWPRP", "values": [
      {"measurement": "shrunken log2 fold change", "value": 0.191}
    ]},
    {"sequence": "RRIRVRPPRLPRPRPRPKAFPRP", "values": [
      {"measurement": "shrunken log2 fold change", "value": 0.00341}
    ]},
    {"sequence": "RRIRDRPPRLPRPRPRPFPYPRP", "values": [
      {"measurement": "shrunken log2 fold change", "value": -0.136}
    ]},
    {"sequence": "RRIRWRPPRLPRPRPRPRKWPRP", "values": [
      {"measurement": "shrunken log2 fold change", "value": 0.526}
    ]},
    {"sequence": "RRIRNRPPRLPRPRPRPMNVPRP", "values": [
      {"measurement": "shrunken log2 fold change", "value": -0.00101}
    ]},
    {"sequence": "RRIRSRPPRLPRPRPRPWTRPRP", "values": [
      {"measurement": "shrunken log2 fold change", "value": 0.0569}
    ]},
    {"sequence": "RRIRQRPPRLPRPRPRPVAVPRP", "values": [
      {"measurement": "shrunken log2 fold change", "value": 0.257}
    ]},
    {"sequence": "RRIRGRPPRLPRPRPRPVMRPRP", "values": [
      {"measurement": "shrunken log2 fold change", "value": 0.749}
    ]},
    {"sequence": "RRIRLRPPRLPRPRPRPIFSPRP", "values": [
      {"measurement": "shrunken log2 fold change", "value": -0.182}
    ]},
    {"sequence": "RRIRYRPPRLPRPRPRPTFTPRP", "values": [
      {"measurement": "shrunken log2 fold change", "value": -0.566}
    ]},
    {"sequence": "RRIRIRPPRLPRPRPRPAPMPRP", "values": [
      {"measurement": "shrunken log2 fold change", "value": 0.0013}
    ]},
    {"sequence": "RRIRERPPRLPRPRPRPYMQPRP", "values": [
      {"measurement": "shrunken log2 fold change", "value": -0.326}
    ]},
    {"sequence": "RRIRCRPPRLPRPRPRPNLTPRP", "values": [
      {"measurement": "shrunken log2 fold change", "value": -0.162}
    ]},
    {"sequence": "RRIRCRPPRLPRPRPRPGYPPRP", "values": [
      {"measurement": "shrunken log2 fold change", "value": -0.00859}
    ]},
    {"sequence": "RRIRDRPPRLPRPRPRPKCGPRP", "values": [
      {"measurement": "shrunken log2 fold change", "value": 0.00846}
    ]},
    {"sequence": "RRIRKRPPRLPRPRPRPPGKPRP", "values": [
      {"measurement": "shrunken log2 fold change", "value": 0.756}
    ]},
    {"sequence": "RRIRGRPPRLPRPRPRPWCYPRP", "values": [
      {"measurement": "shrunken log2 fold change", "value": 0.0576}
    ]},
    {"sequence": "RRIRRRPPRLPRPRPRPLTWPRP", "values": [
      {"measurement": "shrunken log2 fold change", "value": 0.845}
    ]},
    {"sequence": "RRIRMRPPRLPRPRPRPKTSPRP", "values": [
      {"measurement": "shrunken log2 fold change", "value": 0.641}
    ]},
    {"sequence": "RRIRIRPPRLPRPRPRPWDIPRP", "values": [
      {"measurement": "shrunken log2 fold change", "value": -0.00968}
    ]},
    {"sequence": "RRIRNRPPRLPRPRPRPTSAPRP", "values": [
      {"measurement": "shrunken log2 fold change", "value": 0.163}
    ]},
    {"sequence": "RRIRMRPPRLPRPRPRPWVQPRP", "values": [
      {"measurement": "shrunken log2 fold change", "value": 0.015}
    ]},
    {"sequence": "RRIRVRPPRLPRPRPRPNHQPRP", "values": [
      {"measurement": "shrunken log2 fold change", "value": -0.221}
    ]},
    {"sequence": "RRIRDRPPRLPRPRPRPNVLPRP", "values": [
      {"measurement": "shrunken log2 fold change", "value": -0.45}
    ]},
    {"sequence": "RRIRQRPPRLPRPRPRPDKHPRP", "values": [
      {"measurement": "shrunken log2 fold change", "value": -0.205}
    ]},
    {"sequence": "RRIRYRPPRLPRPRPRPCHQPRP", "values": [
      {"measurement": "shrunken log2 fold change", "value": -0.00822}
    ]},
    {"sequence": "RRIRDRPPRLPRPRPRPDPSPRP", "values": [
      {"measurement": "shrunken log2 fold change", "value": -0.0385}
    ]},
    {"sequence": "RRIRSRPPRLPRPRPRPNIVPRP", "values": [
      {"measurement": "shrunken log2 fold change", "value": 0.238}
    ]},
    {"sequence": "RRIRLRPPRLPRPRPRPSILPRP", "values": [
      {"measurement": "shrunken log2 fold change", "value": -0.57}
    ]},
    {"sequence": "RRIRLRPPRLPRPRPRPWYRPRP", "values": [
      {"measurement": "shrunken log2 fold change", "value": -0.3}
    ]},
    {"sequence": "RRIRRRPPRLPRPRPRPWFFPRP", "values": [
      {"measurement": "shrunken log2 fold change", "value": 0.08}
    ]},
    {"sequence": "RRIRRRPPRLPRPRPRPINLPRP", "values": [
      {"measurement": "shrunken log2 fold change", "value": -0.00491}
    ]},
    {"sequence": "RRIRPRPPRLPRPRPRPLCCPRP", "values": [
      {"measurement": "shrunken log2 fold change", "value": -0.105}
    ]},
    {"sequence": "RRIRQRPPRLPRPRPRPPLLPRP", "values": [
      {"measurement": "shrunken log2 fold change", "value": -0.114}
    ]},
    {"sequence": "RRIRFRPPRLPRPRPRPQKYPRP", "values": [
      {"measurement": "shrunken log2 fold change", "value": -0.864}
    ]}
  ]
}
